The target of assay [1] is T1, 人血清白蛋白 (human serum albumin) (human, UniProt P02768 25-609).
T1 construct: also called HSA
Nature of the assay: phage ELISA, HSA coated, A650. On the technique in general: In an ELISA, binding on a coated surface is turned into a signal by an enzyme label.

In assay [2] the target is IgG (coated control antigen). Nature of the assay: phage ELISA, IgG coated, A650.
The target in assay [3] is T1, 人血清白蛋白 (human serum albumin). Put plainly: ELISA, HSA coated, A650.
In assay [4] the target is T2, 牛血清白蛋白 (bovine serum albumin) (bovine, UniProt P02769 25-607).
T2 construct: also called BSA
T2 sequence (P02769 25-607 limits assumed): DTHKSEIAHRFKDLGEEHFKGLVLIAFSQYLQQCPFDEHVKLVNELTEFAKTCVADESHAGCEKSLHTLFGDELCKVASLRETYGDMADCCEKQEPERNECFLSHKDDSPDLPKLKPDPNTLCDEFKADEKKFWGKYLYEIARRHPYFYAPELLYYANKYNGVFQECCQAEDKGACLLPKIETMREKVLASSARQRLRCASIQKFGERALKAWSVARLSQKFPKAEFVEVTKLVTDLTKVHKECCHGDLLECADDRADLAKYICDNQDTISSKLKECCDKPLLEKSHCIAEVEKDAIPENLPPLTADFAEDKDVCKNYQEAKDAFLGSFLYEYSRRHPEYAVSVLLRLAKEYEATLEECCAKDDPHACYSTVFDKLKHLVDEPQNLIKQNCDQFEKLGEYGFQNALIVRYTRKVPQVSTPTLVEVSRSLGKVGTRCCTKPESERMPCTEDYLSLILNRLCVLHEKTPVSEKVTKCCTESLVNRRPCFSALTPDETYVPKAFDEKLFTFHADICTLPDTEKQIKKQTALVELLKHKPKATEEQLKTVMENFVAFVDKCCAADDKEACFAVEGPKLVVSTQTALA
Put plainly: ELISA, antigen coated, purified HF11-FC, A650.

T1 sequence (P02768 25-609 limits assumed): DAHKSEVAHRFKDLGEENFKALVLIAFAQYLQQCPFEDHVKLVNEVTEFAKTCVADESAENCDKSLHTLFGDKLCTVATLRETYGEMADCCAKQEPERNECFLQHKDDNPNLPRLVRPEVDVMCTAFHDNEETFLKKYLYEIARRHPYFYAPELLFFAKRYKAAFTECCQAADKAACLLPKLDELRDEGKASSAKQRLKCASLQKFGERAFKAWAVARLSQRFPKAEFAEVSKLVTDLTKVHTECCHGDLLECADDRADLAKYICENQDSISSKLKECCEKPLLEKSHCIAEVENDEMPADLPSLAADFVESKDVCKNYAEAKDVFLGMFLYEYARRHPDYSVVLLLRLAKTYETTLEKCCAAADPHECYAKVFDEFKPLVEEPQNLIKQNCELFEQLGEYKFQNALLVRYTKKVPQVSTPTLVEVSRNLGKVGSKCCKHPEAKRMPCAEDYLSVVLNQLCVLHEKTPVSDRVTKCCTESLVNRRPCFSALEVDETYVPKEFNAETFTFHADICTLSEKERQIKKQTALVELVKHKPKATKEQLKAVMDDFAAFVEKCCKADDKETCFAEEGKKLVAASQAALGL

B1: HE9 单域抗体 (phage-displayed clone, culture supernatant) (VHH)
VHH: QVQLLESGGGLVQPGGSLRLSCAASGFMVTSEIMGWVRQAPGKGLEWVSTIVANNGSTYYADSVKGRFTISRDNSKNTLYLQMNSLRAEDTAVYYCASPPRRTGVDGTESMHFWGQGTLVTVSS
notes: Human heavy-chain single domain antibody on a DP47 framework; Tested in ELISA as phage in culture supernatant; not shown: Myc and VSV-G tags and phage GIII protein of display vector pBG3
Turning to B1, the binding result in assay [1] is “binds”. The A650 in assay [2] was ≤ 0.3 A650.

B2: HB5 单域抗体 (phage-displayed clone, culture supernatant) (VHH)
VHH: QVQLLESGGGLVQPGGSLRLSCAASGVKAINHTMGWVRQAPGKGLEWVSAIRTPDGSTYYADSVKGRFTISRDNSKNTLYLQMNSLRAEDTAVYYCASVGDNAGSSSPPFASWGQGTLVTVSS
notes: Human heavy-chain single domain antibody on a DP47 framework; Tested in ELISA as phage in culture supernatant, detected with an HRP-labelled anti-phage antibody; not shown: Myc and VSV-G tags and phage GIII protein of display vector pBG3
With B2, the binding result in assay [1] is given as “binds”. Further, the A650 in assay [2] was ≤ 0.3 A650.

B3: HF11 单域抗体 (phage-displayed clone, culture supernatant) (VHH)
VHH: QVQLLESGGGLVQPGGSLRLSCAASGVKISYESMAWVRQAPGKGLEWVSSILMQNGSTYYADSVKGRFTISRDNSKNTLYLQMNSLRAEDTAVYYCATTRVRRPANMKYWGQGTLVTVSS
notes: as for B1
Take B3: the A650 in assay [2] is ≤ 0.3 A650.

B4: 融合蛋白HF11-FC (expressed from pcDNA3.1 in 293F cells) (Fc fusion)
chain: QVQLLESGGGLVQPGGSLRLSCAASGVKISYESMAWVRQAPGKGLEWVSSILMQNGSTYYADSVKGRFTISRDNSKNTLYLQMNSLRAEDTAVYYCATTRVRRPANMKYWGQGTLVTVSS
notes: The secreted protein was purified on Protein A; not shown: human Fc; residues encoded by the BamHI site between the single domain antibody and Fc; no
For the molecule B4, the figures for the binding result in assay [3] and in assay [4] were “binds” and “no binding”, respectively.

Source of the values: patent CN107674122A (TIANJIN TIMMUNE BIOTECH INC, dated 2018).
